Results as given in patent US11491212.

B1: FIXa-R338E/T343R/R403E (protein)
chain 1: not shown
chain 2: not shown
B2: FIXa-Y155F/K247N/N249S/R318Y/T343R (protein)
chain 1: not shown
chain 2: not shown
B3: FIXa-Y155F/R338E/T343R/R403E/E410S (protein)
chain 1: not shown
chain 2: not shown
B4: FIXa-Y155F/K247N/N249S/R318Y/R338E (protein)
chain 1: not shown
chain 2: not shown
B5: FIXa-Y155F/K247N/N249S/R318Y/R338E/T343R/R403E (protein)
chain 1: not shown
chain 2: not shown
B6: FIXa-K247N/N249S/R318Y/R338E/T343R/R403E (protein)
chain 1: not shown
chain 2: not shown
B7: FIXa-R318Y/R338E/T343R/R403E/E410S (protein)
chain 1: not shown
chain 2: not shown
B8: FIXa-Y155F/N260S/R338E/T343R/R403E (protein)
chain 1: not shown
chain 2: not shown
B9: FIXa-Y155F/I251S/R338E/T343R/R403E (protein)
chain 1: not shown
chain 2: not shown
B10: FIXa-Y155F/K247N/N249S/R338E/T343R/R403E/E410N (protein)
chain 1: not shown
chain 2: not shown
B11: FIXa-Y155F/K247N/N249S/R318Y/R403E (protein)
chain 1: not shown
chain 2: not shown
B12: FIXa-K247N/N249S/R338E/T343R/R403E/E410N (protein)
chain 1: not shown
chain 2: not shown
B13: FIXa-Y155F/K247N/N249S/T343R/R403E (protein)
chain 1: not shown
chain 2: not shown
B14: FIXa-Y155F/R338E/T343R/R403E (protein)
chain 1: not shown
chain 2: not shown

Target: Factor X, P00742
Sequence (P00742 whole entry, looked up): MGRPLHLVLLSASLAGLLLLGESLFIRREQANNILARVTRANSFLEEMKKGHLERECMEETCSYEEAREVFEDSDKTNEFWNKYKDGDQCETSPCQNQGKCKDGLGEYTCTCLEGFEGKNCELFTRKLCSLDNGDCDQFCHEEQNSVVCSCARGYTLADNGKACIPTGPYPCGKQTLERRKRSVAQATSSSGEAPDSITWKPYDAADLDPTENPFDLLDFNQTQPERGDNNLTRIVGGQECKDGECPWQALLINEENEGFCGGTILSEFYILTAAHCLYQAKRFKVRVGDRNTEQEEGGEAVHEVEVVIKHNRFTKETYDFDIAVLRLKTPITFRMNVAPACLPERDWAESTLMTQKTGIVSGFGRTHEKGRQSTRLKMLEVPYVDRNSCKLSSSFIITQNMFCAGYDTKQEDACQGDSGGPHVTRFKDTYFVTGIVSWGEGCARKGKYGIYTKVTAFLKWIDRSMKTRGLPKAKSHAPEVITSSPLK

In order of falling KM:
1. B11  109 nM
2. B8  69.2 nM
3. B13  59.6 nM
4. B2  42.1 nM
5. B5  36.5 nM
6. B14  28.9 nM
7. B6  28.4 nM
8. B10  26.4 nM
9. B4  26.3 nM
10. B12  25.1 nM
11. B3  23.9 nM
12. B1  23.5 nM
13. B9  19.6 nM
14. B7  19 nM

In order of falling kcat/KM:
1. B7  4.4e+08 M⁻¹ s⁻¹
2. B12  4.3e+08 M⁻¹ s⁻¹
3. B6  4.1e+08 M⁻¹ s⁻¹
4. B10  3.7e+08 M⁻¹ s⁻¹
5. B1  3.1e+08 M⁻¹ s⁻¹
6. B9  3e+08 M⁻¹ s⁻¹
7. B3  2.9e+08 M⁻¹ s⁻¹
8. B4  2.9e+08 M⁻¹ s⁻¹
9. B5  2.9e+08 M⁻¹ s⁻¹
10. B2  2.5e+08 M⁻¹ s⁻¹
11. B14  2e+08 M⁻¹ s⁻¹
12. B8  9.4e+07 M⁻¹ s⁻¹
13. B13  8.5e+07 M⁻¹ s⁻¹
14. B11  1.6e+07 M⁻¹ s⁻¹

In order of rising “% of WT kcat/KM” value:
1. B11  34%
2. B2  549%
3. B4  632%
4. B12  930%
